Reference: the domain aggregation screens of Martell et al. (2025)

experiment: soluble fraction after stress (log2 fold change); higher = more stays soluble; pooled small domains, quantitative proteomics; conditions: stress: 75 degC
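Also: 20 min heating vs room temperature control held 20 min.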

Compared with “HMVVTMEKIVVNDGGIRIDTYLADKLNISRSKVAKMLENNILVNNVKVKPSYKVTNNDIIEVEEYV”, “HMVVVLPGETIKIDLIREGKDKQALGYLEDGTMIVVDNAKHLIGKNVEIEIDNVLPKEAGRVIFASLHGA” is higher in “soluble fraction (log2)” value: -1.86 for the first, -0.388 for the second.

Compared with “HMVVVMNADAEADEIKRVKWNLEQMLFRTQVIYGVKRIVIGAIGDQREVDLSEIEQMPKVDKIVRISK”, “HMVVVPDVKGLKIEEAAEFFKNNNLHYNVIDSVFSKDVEPGAIVELSPLAGSKVKEGRIVFITVNALTS” is higher in “soluble fraction (log2)” value: -2.24 for the first, -1.12 for the second.

Compared with “HMVVVVELTENEKAVQDVLTKNEGSLEISDLKTKLELSGKQWDKALKGLAKHGITQVAKVDGVVTVSL”, “HMVWMIEKDQSVILVNKLERIQVEALGKALENGNFGDRIRVINNKSGQKLLGIVESEKKIQIISKI” is lower in “soluble fraction (log2)” value: -0.381 for the first, -2.92 for the second.

Compared with “HMVYLPGEEIPLKIIQEGKESGQGVGYLEDGTMVVVENGRRYLNQEVLVQVTKILQTNAGRLIFAVP”, “HMVYLPSSIKNIPTKYGEMMVANFKMDELQANSKNGWVSMVISERREPSEKGATHYAYVNTY” is higher in “soluble fraction (log2)” value: -2.6 for the first, 0.484 for the second.

Going from “HMVYNQYILTQSVRLREEPGISGRVIRLLETGTTVELVDTVVVNKDDYDWVWVKLSDGAVGWIIKSAIDI” to “HMWDEMKDQKLVEALLLLREDERKLIYQHVFEERTFDDISRINGLPPYKVKGIYYYAIRKIRKWMG”, the “soluble fraction (log2)” value falls from -1.57 to -2.26.

“HMWGQDVLFTIDKKEFKGKLLEQSDKHTTFLPDGQKTPQKIPNRLIKEIHLGSNKIIDFGNDFLI” and “HMWPDDAIALPTRDGQDVGGAQERTMLAFASGAAGIRTVEEINPDGSITRLRTRYGWPTFETEGARTAAAE” are within 0.2 log units of each other in “soluble fraction (log2)” value: -0.19 for the first, -0.0272 for the second.

First: HMWTIDPLDWKTENADQIVEKVMSEAKENAIILLHDRYEASVEAALRIVDLLKEQGYTFVTADKLV
Second: HMWTKKELWNAIAKLPKKQRTVVMMRIAQNLPYKDISEITGMSIGSAKVNYHHAVNSLKQWLS
The “soluble fraction (log2)” value of the first is higher: -0.154 for the first, -0.746 for the second.

Going from “HMWTPLVVAVLIGGTHRFGELRAAVGGITPKVLTETLRSMERDGLVVREQTPGVPPRVDYALTPLGA” to “HMYAGTWISESGQWKYRNDDGSFAKGWFQDLDSRWYYFDANGHMLSDTLTPDGYRLGEDGAWVND”, the “soluble fraction (log2)” value rises from -0.493 to 0.0742.

First: HMYDESVFTGEYHYYYEKLSDDDKLIYRQIYAMMQKRMDGISLNTTDTDNVSRIQQFVLLDNPQF
Second: HMYDKKVFRLLFILNQLDSRKKVSTGELAKEFNVSPRTVQRDIVLLNTTGFPIISLEKGYHSFMEGFSLK
The “soluble fraction (log2)” value of the first is lower: -2.61 for the first, -1.19 for the second.

Compared with “HMYDPVNEIGRVLKKIRQERSLTLDNVAEITGVSKTMLGQIERGVSVPTISVLWKIAKGLQVSLSTLLNE”, “HMYEGLPVTLIIDGRVIEANLAKANRDMAWLERELANSGVRSHHDVFFATLDSRGQLYYQVKN” is higher in “soluble fraction (log2)” value: -3.24 for the first, -1.04 for the second.

First: HMYELDIYPNPAIDKINVLLPSSTTLPVKVEIYDIMGKKVNSLLTTKKAFTIETDQFEKGIYFVKA
Second: HMYELREGDVVSVRILSQTGQNSYIASFAGGRFSVTSERAFAPGTVFSASVSLKDGTLVLSPL
The “soluble fraction (log2)” value of the first is higher: 0.331 for the first, -3.6 for the second.

Going from “HMYFEDEELDRFVGTPAGAYTEEDVEEFRDVLLSLDIEEVPSWVRSLQLRGIDFPETLRPELYLL” to “HMYGQEVKVLGLFGDRAFIKVDEKSAVIRIGQSHQNVQLKSISNQKAILLVDNKDIALGLGDSYQSA”, the “soluble fraction (log2)” value rises from -3.01 to -1.69.

First: HMYGVAEFDEKGNVLSIEEKPVQPKSNYAVVGLYFYPNKVVGVASGIKPSARGELEITTVNQTFLRDEELK
Second: HMYHNKFADLAGFIAFNEKNEEIFTFGKYKGQNVKEVFQRDIGYYGWLQNADFPLYTKKVFTAIQLRSR
The “soluble fraction (log2)” value of the first is higher: 0.204 for the first, -2.44 for the second.

First: HMYHPGFEALREVARQGSFIKAARALGISGPAVSKQIKSLEARLNLVLLHRTTRAVTLTEAGQRLTEILD
Second: HMYIDNVTIYDVGFNERIVHALERAGVKNLYDLSQMNFYQLQRIRNLGASSLEKVINRIHSYGILLKNES
The “soluble fraction (log2)” value of the first is lower: -2.14 for the first, -0.902 for the second.

First: HMYIEKTAYINDTAVNVRKSATTDSDVIKVLALNTEITIIGEENDWYKVKSGNDIGYIAKRLVSDQKKE
Second: HMYIKYETVLQNITERIAALRKNGTLVLDGERTLAAEFDASRGTIRKAMRQLEENGTILREGYVTRILPE
The “soluble fraction (log2)” value of the first is higher: -0.187 for the first, -1.95 for the second.

Compared with “HMYIVVPDLSKKDINEVANILAAQSLRFQVIDSANFRSDFPKNAVISQKPLAGSEVKVNKKIYLQLNPS”, “HMYLEARVKSTTPILSKPNELGKSLGKLYTNDFVALVSLHKNGLDSYYRTANGGYINAADVVIDRDV” is lower in “soluble fraction (log2)” value: -0.43 for the first, -1.49 for the second.

“HMYLPLREVVFNALRTAIIHGEFKPGERLMEMHLAKSLGVSRTPVREAMRMLELEGLVVMIPKKGAEVAR” and “HMYMKMNDRIRSRRKELKMTQSVLAKLVGVNRVTITGWESGDYKPGGENLQALAAALEKTPQWLLDGKD” are within 0.2 log units of each other in “soluble fraction (log2)” value: -2.93 for the first, -2.82 for the second.

Compared with “HMYMTTADADMWKYVNTGRYNNDIQLMEEYKNRSMDSFEVITPEQQRKYNKAAMNLNSYYAWADPSYKPNP”, “HMYMWQVEDLLRANELDIENIKKTIIDHYQLDDAQKSELTRWYEDLINMMRLEGVTKEGHLQINK” is lower in “soluble fraction (log2)” value: -0.483 for the first, -2.02 for the second.

“HMYNSYALTARELELVNYVLKGNSRREMAEDSGLKENTVASYMKRLYRKIKVHSRKELKELFM” and “HMYPDNEQTLSKLAFEFFKKRNIPISQSNINQIVTKSLGDRENLYNELLKIENFSTSGKKLTDNVIKKLIN” are within 0.2 log units of each other in “soluble fraction (log2)” value: -0.151 for the first, -0.0858 for the second.

Going from “HMYPFSEETLKEKIREYLKTNRSINRRVLEREFYIRKQTALNWLNRLVDSGFLIKEGVRNSPVYFLAE” to “HMYPMQNYSTIIGVIELRQQSVGYATTQKRYGIGSSTVTLIMKRFKELGLTLEELRAMPPKAVEVAFYPPE”, the “soluble fraction (log2)” value falls from -0.884 to -1.69.

Going from “HMYPNEFPRKVMSVFESSGLEMFRTIEMLLAIPEYETPLPYGSGVSRSDIFVLAKSAGNLVSITV” to “HMYQFFVDPGQIQGKRVTITGSDVNHIKNVLRMRIGEEIAVSNGKDGLEYRFGIDEILEDEVIGTLRFVKE”, the “soluble fraction (log2)” value falls from -0.117 to -1.61.

Going from “HMYRIGELAKLADVTPDTIRYYEKQQMMDHDVRTEGGFRLYSDNDLQRLKFIRYARQLGFTLEAIRELLSI” to “HMYRWSEEIFEKLRSDIMAALDLSREQNDEEIYRFIETEVEEYSQNNLLTLKEREQLEHLLFNSL”, the “soluble fraction (log2)” value rises from -2.27 to -1.44.

First: HMYSKVSFTVSVGMTSERVSASLKALGIIDDSAKFNRYLVSNGYSTRIKVGTVELQAGQSYAEIASKLV
Second: HMYSLSELERIKNFLTGYMSDYSIMMLDANEITNQVDISLKDYSDDNIESIKAAVLSHGGKTDYLNFIDDS
The “soluble fraction (log2)” value of the first is lower: -3.88 for the first, -0.926 for the second.

First: HMYSQEEKRYMEIMEIKPQELSAENLKKQYKKLVKKYHPDLHQDDKQAAEEKFKQLTNAYQVLMRRF
Second: HMYSSASKEEIDQLMKRLILNLDAKGYFWPQDKEKSLKLYLHNLFSKLPLNSSDIRFLHGLIRALSEE
The “soluble fraction (log2)” value of the first is higher: -0.474 for the first, -1.3 for the second.

“HMYSSIIGIAFTRAENKPAAPTGGSYSNPHPVDGNWKAAPYDGDGNLWYSIRHFNENVDIQDREWSDPTLG” and “HMYSYSGSVINTYKVPVSVVLKDANGSAIASWDLPVDQSLGISAKDIATSSGTIEITGDGVNETKTVTFTK” are within 0.2 log units of each other in “soluble fraction (log2)” value: -0.238 for the first, -0.12 for the second.

Compared with “HMYTGSEGMAGLEGRAVTEVGPEAGTVLVKGEYWQARSDEPIATDRKIRVIRLEGLRLRVAEIHPEG”, “HMYTPDYLSDLMVRMAHHSTAIEGNTLTQGETKSVLVDGYIPRAMDMRELNEVLNYKAFMTFLVE” is higher in “soluble fraction (log2)” value: -0.45 for the first, -0.0939 for the second.

First: HMYTTHTQSELNEAARFNGRATYQKGIYYNESKKEHFKVVNGKYQALPNVKQVNGDSWIDKTGITHKG
Second: HMYTVQQLARLAGITPRTLRHYDAIGLLKPTRVGENGYRYYGSEALLRLQSILLYRELDMPLEDIRRVLDS
The “soluble fraction (log2)” value of the first is higher: -0.324 for the first, -3.5 for the second.

“HMYVPEVPVPDLLGRSEEEAKNLIEDLGLVFKVSKREYSKEYDEGHVMEQSVDEGAKVKENYPVEVVISR” and “HMYYDDEELDDYRGKASDAYTAAEVEQFEEVLTTMRPEEVHGWLRSLQLRGVALPDALKDEAYMIVSEQAE” are within 0.2 log units of each other in “soluble fraction (log2)” value: 0.181 for the first, -0.0106 for the second.

With “HMYYIITNGKYWVIENPIRPGEYMESTKSSNAKQFTFKQAKNLLNARSKKLGWIRNGYSMVGED” the “soluble fraction (log2)” value was -2.46.
